In patent US7910100B2, “Antibodies directed to the mammalian EAG1 ion channel protein” (Max-Planck-Gesellschaft zur Forderung der Wissen, priority 2004, dated 2011):

T1: endogenous Eag1 antigen in MCF7 breast cancer and IPC-298 melanoma cells (Homo sapiens, UniProt O95259)
T1 construct: endogenous in cells; host or cells: MCF7 breast cancer cells, IPC-298 melanoma cells
T1 sequence (O95259 1-989): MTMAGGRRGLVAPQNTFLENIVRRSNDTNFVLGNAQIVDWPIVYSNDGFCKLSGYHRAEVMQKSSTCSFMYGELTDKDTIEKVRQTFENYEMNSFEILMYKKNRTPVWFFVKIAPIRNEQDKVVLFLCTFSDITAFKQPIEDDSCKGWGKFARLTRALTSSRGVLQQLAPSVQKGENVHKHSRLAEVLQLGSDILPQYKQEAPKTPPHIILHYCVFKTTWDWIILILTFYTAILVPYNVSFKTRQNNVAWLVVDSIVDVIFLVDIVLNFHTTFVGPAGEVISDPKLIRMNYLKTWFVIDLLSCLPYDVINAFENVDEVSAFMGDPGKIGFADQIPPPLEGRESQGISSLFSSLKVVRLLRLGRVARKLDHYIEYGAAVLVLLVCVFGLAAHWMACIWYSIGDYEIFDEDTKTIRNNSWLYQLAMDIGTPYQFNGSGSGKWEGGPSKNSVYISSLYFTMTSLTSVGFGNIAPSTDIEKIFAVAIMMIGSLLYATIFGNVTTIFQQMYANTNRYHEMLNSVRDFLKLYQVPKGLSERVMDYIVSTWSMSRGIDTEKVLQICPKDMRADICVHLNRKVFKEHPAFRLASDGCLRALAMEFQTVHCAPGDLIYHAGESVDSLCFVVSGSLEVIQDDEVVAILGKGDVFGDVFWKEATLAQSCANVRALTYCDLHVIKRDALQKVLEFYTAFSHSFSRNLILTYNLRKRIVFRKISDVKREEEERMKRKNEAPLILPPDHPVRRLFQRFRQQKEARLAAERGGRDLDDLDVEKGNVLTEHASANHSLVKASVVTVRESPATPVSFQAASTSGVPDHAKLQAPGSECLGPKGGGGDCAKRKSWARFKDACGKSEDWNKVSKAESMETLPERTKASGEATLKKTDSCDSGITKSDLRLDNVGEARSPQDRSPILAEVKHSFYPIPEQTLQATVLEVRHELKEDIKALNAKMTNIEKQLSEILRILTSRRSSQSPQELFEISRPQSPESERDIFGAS

T2: Eag1 current (Homo sapiens, UniProt O95259)
T2 construct: expressed in transfected cells
T2 sequence (O95259 1-962 isoform O95259-2): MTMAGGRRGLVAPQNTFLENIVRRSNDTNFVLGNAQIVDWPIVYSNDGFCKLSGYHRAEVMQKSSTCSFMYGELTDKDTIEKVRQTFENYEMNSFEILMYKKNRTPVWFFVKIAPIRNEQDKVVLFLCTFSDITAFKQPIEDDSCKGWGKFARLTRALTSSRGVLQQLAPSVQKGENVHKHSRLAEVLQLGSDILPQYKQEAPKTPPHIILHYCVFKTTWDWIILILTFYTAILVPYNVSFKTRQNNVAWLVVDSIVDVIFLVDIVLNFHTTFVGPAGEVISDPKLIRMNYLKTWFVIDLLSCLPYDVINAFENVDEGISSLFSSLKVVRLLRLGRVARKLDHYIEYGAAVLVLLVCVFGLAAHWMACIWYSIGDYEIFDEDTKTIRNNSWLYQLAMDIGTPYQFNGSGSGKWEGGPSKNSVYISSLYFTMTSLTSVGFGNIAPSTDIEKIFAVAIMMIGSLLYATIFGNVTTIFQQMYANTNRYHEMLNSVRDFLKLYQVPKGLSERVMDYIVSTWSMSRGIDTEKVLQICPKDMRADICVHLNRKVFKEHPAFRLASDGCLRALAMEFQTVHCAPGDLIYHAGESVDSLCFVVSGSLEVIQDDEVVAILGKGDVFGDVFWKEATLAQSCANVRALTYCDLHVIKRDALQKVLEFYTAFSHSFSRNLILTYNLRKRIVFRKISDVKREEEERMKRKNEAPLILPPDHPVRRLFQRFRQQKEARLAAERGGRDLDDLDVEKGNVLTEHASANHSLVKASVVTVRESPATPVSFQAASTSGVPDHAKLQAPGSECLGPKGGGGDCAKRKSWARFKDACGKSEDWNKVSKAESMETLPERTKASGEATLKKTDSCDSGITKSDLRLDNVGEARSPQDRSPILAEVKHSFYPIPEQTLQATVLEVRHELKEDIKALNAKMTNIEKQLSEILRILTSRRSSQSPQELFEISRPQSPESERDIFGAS

B1: ImAb4: mouse monoclonal anti-Eag1 antibody, IgG2b kappa; light chain SEQ ID NO: 2, heavy chain SEQ ID NO: 4 (antibody, listed as Mus musculus)
heavy: MRVLILLWLFTAFPGILSDVQLQESGPGLVKPSQSLSLTCTVTGYSITSDYAWNWIRQFPGNKLEWMGYISYSGSTIYNPSLKSRISITRDTSKNQFFLQLNSVTTEDTATYYCARFGNYGNTLNYWGQGTSVTVSSAKTTPPSVYPLAPGCGDTTGSSVTLGCLVKGYFPESVTVTWNSGSLSSSVHTFPALLQSGLYTMSSSVTVPSSTWPSQTVTCSVAHPASSTTVDKKLEPSGPISTINPCPPCKECHKCPAPNLEGGPSVFIFPPNIKDVLMISLTPKVTCVVVDVSEDDPDVQISWFVNNVEVHTAQTQTHREDYNSTIRVVSTLPIQHQDWMSGKEFKCKVNNKDLPSPIERTISKIKGLVRAPQVYILPPPAEQLSRKDVSLTCLVVGFNPGDISVEWTSNGHTEENYKDTAPVLDSDGSYFIYSKLNMKTSKWEKTDSFSCNVRHEGLKNYYLKKTISRSPGK
light: MKLPVRLLVLMFWIPASSSDVVMTQTPLSLPVSLGDQASISCRSSQSLVHSNGNTYLHWYLQKPGQSPKLLIYKVSNRFSGVPDRFSGSGSGTDFTLKISRVEAEDLGVYFCSQSTHVPPTFGGGTKLEIKRADAAPTVSIFPPSSEQLTSGGASVVCFLNNFYPKDINVKWKIDGSERQNGVLNSWTDQDSKDSTYSMSSTLTLTKDEYERHNSYTCEATHKTSTSPIVKSFNRNEC
B2: ImAb1: mouse monoclonal anti-Eag1 antibody; VL SEQ ID NO: 43, VH SEQ ID NO: 44; binds C-terminus of Eag1 (antibody, listed as Mus musculus)
heavy: MNFGFSLIFLVLVLKGVQCEVKLVESGGGLVKPGGSLKLSCAASGFTFSNYAMSWVRQTPEKRLEWVASISSDGDTYFPDNVKGRFTISRENAGNILFLQMSSLRSEDTAMYYCARGFMITFWGQGTLVTVSAAKTTPPSVYPLAPGCGDTTGSSVTLGCLVKGYFPESVTVTWNSGSLSSSVHTFPALLQSGLYTMSSSVTVPSSTWPSQTVTCSVAHPASSTTVD
light: MDMRAPAQFFGILLLWFPGIRCDIKMTQSPSSMYASLGERVTITCKASQDIKSYLSWYQQKPWKSPKILIYYATSLADGVPSRISGSGSGQDYSLTISSLESDDTATYYCLQHGESPYTFGGGTKLEIKRADAAPTVSIFPPSSEQLTSGGASVVCFLNNFYPKDINVKWKIDGSERQNGVLNSWTDQDSKDSTYSMSSTLTLTKDEYERHNSYTCEATHKTSTSPIVKSFNRNEC

Key:
[1] = molecular target: T1, endogenous Eag1 antigen in MCF7 breast cancer and IPC-298 melanoma cells; assay: Immunofluorescence detection of Eag1 antigen in human tumor cells; type: cell-based; conditions: 2 μg/ml antibody
Procedure: For detection of Eag1 antigen in human tumor cells an Immunofluorescence staining protocol was established. Glass-Chamber slides (Falcon) were pre-coated with 300 μl medium containing 10% FCS at 37° C. for 30 min. 40 000 MCF7 breast cancer cells/well and 40 000 IPC-298 melanoma cells/well were seeded on pre-coated glass chamber slides and cultured at 37° C. in 5% CO2 for 24 h. After removing the chambers, slides were washed with PBS and cells were fixed with 4% Paraformaldehyd (in PBS adjusted to pH 7.5 with 1 M NaOH) at 25° C. for 10 min. Slides were air dried and re-hydrated with PBS for 3 min (3×). Cells were permeabilized with 0.5% Triton-X 100 in PBS for 10 min at 25° C., slides were washed for 3 min in PBS (3×) and each well was blocked with 100 μl blocking buffer (5% FCS, 2.5% BSA in PBS) at 25° C. for 1 hours. 2 μg/ml anti-EAG1 antibody ImAb 4 diluted in 40 μl blocking buffer/well was incubated for 1 h at 25° C., washed 3× with PBS and 50 μl Alexa 546 goat anti-mouse IgG (Molecular Probes; diluted 1:200 in dilution buffer) was incubated as detection antibody for 1 h at 25° C. Slides were washed with PBS (3×), 50 μl DAPI (Roche; diluted 1:1000 in PBS) was added to each well and incubated at 25° C. for 5 min. […]
Staining of the anti-EAG1 antigen with ImAb 4 was analysed using a Fluorescence microscope at 573 nm.

[2] = molecular target: T2, Eag1 current; assay: Two-electrode voltage clamp in Eag1-expressing oocytes; type: cell-based; conditions: 10% hybridoma supernatant
Procedure: In order to analyse the functional properties of anti-Eag1 antibodies of the invention were analysed by a two-electrode voltage clamp experiment. Therefore, Oocyte preparation and electrophysiological recordings were performed as described in Stühmer, W., 1992, Methods in Enzymology 207. Oocytes were injected with synthetic mRNA coding for Eag1, incubated for 48 h and recorded in NFR (115 mM NaCl, 1.8 CaCl2, 2.5 KCl, 10 Hepes pH 7.2) until stable traces were recorded. Then, 10% of the corresponding hybridoma supernatant producing ImAb1 or ImAb3 was added to the chamber and current amplitudes were further monitored.

Row | Molecule | preferential binding by cell stage [1] | binding to endogenous Eag1 antigen ([1]; fixed permeabilized cells) | inhibition of Eag1 current [2]
1 | B1 | preferentially binds to dividing human cancer cells | binds to endogenous Eag1 antigen in human cancer cells | –
2 | B2 | – | – | No inhibition of Eag1 current was detected
